Test results reported in article PMC4761961, “In silico selection of an aptamer to estrogen receptor alpha using computational docking employing estrogen response elements as aptamer-alike molecules”.

B1: ERaptR1 (structured_RNA)
RNA: GAGGUCACUGAGACCAU
B2: ERaptR2 (structured_RNA)
RNA: CCAGGUCACAGUGACCUG
B3: ERaptR12 (structured_RNA)
RNA: GGGGUCAAGGUCACCGC
B4: ERaptR13 (structured_RNA)
RNA: CAGGUCAAGGCGAUCUU
B5: ERaptR14 (structured_RNA)
RNA: CCAGUCAGUCUGAUUAU
B6: ERaptR15 (structured_RNA)
RNA: GCGGUCACCGUCACCUC
B7: ERaptR16 (structured_RNA)
RNA: UUGGUCAGGCUGAUCUC
B8: ERaptR17 (structured_RNA)
RNA: UUGGUCAAGCUGCCCUC
B9: ERaptR18 (structured_RNA)
RNA: GGGGUCAGCUGUGCCCCG
B10: ERaptR3 (structured_RNA)
RNA: AGGGUCAGGGCCACCUG
B11: ERaptR5 (structured_RNA)
RNA: AAGGUCACGGUGGCCAC
B12: ERaptR6 (structured_RNA)
RNA: UAGGUCAGUAAGACCUC
B13: ERaptR7 (structured_RNA)
RNA: CGGGUCACGAUGCCCUA
B14: ERaptR8 (structured_RNA)
RNA: CGGGUCAGGGUGACCUC
B15: ERaptR9 (structured_RNA)
RNA: UGGUCAGGCUGGUCUCA
B16: ERaptR11 (structured_RNA)
RNA: AGGGUCAUGGUGACCCU
B17: ERaptR4 (structured_RNA)
RNA: GGGGUCAAGGUGACCCC

These binders were tested against T1, Estrogen receptor alpha (ERα) (human, UniProt P03372 1-595) (assay: ITC; ITC: 10 mM Tris-HCl pH 8.0, 25 °C, 1 µM ERα in cell, 10 µM RNA in syringe; ELISA: 100 nM biotinylated ERaptR4, 2 h; western blot: 1 µM ERaptR4). Conditions: chain copies: 2; hairpin.
T1 sequence (P03372 whole entry): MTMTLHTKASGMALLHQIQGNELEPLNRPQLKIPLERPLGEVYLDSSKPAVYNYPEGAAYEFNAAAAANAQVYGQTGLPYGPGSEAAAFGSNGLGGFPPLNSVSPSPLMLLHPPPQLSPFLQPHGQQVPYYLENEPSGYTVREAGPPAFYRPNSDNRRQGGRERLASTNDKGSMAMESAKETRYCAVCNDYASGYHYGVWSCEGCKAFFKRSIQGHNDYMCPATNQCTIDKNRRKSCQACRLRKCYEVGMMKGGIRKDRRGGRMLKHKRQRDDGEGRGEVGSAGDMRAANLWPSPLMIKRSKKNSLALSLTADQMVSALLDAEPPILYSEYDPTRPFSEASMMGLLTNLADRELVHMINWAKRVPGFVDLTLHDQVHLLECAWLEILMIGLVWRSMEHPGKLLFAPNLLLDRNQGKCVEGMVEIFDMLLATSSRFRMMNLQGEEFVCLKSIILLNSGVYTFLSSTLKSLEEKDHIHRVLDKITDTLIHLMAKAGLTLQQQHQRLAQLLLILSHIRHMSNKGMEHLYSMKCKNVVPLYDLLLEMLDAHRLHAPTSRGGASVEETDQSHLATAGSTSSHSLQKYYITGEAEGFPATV

How did the Ka turn out when B1 was run?
Its Ka is 9.2e+07 M⁻¹.

With B2 as the binder, how does the Ka read?
The Ka was 7.6e+07 M⁻¹.

With B3 as the binder, how does the Ka read?
Its Ka is 8.2e+07 M⁻¹.

How did the Ka turn out when B4 was run?
The Ka was 8.96e+07 M⁻¹.

Which Ka does the source give for B5 here?
Its Ka is 7.42e+07 M⁻¹.

With B6 as the binder, how does the Ka read?
Its Ka is 9.25e+07 M⁻¹.

Which Ka does the source give for B7 here?
Its Ka is 9.4e+07 M⁻¹.

With B8 as the binder, how does the Ka read?
Its Ka is 1.26e+08 M⁻¹.

How did the Ka turn out when B9 was run?
Its Ka is 9.91e+07 M⁻¹.

B10 was tested. Which Ka did it give?
Its Ka is 5.24e+07 M⁻¹.

B11 was tested. Which Ka did it give?
Its Ka is 6.82e+07 M⁻¹.

For B12, which Ka is on record?
Its Ka is 9.46e+07 M⁻¹.

Which Ka does the source give for B13 here?
Its Ka is 4.82e+07 M⁻¹.

How did the Ka turn out when B14 was run?
The Ka was 8.88e+07 M⁻¹.

For B15, which Ka is on record?
The Ka was 9.46e+07 M⁻¹.

Which Ka does the source give for B16 here?
The Ka was 8.02e+07 M⁻¹.

Target: T1, Estrogen receptor alpha (ERα)
Assay: as above
Conditions: chain copies: 2; hairpin
Remark: another data set of the same source

With B17 as the binder, how does the Ka read?
Its Ka is 1.02e+08 M⁻¹.
